# Measured values published in paper PMC6165545.
# Target: growth hormone secretagogue receptor-type 1a tagged with enhanced green fluorescent protein (GHSR-1a-EGFP), stably expressed in HEK293A cells (UniProt Q92847)
# Chain of UniProt Q92847 (Q92847 whole entry): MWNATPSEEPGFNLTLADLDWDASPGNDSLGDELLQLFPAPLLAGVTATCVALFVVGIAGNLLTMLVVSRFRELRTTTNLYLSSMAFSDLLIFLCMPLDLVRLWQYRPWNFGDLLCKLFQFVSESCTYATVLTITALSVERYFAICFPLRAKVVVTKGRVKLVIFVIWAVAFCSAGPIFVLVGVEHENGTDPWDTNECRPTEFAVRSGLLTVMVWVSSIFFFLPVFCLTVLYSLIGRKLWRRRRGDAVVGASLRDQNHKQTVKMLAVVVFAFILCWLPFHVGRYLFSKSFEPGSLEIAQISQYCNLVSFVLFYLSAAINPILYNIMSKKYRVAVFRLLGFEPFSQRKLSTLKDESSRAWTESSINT
Substance,"intracellular Ca2+ mobilisation in HEK293A cells stably expressing GHSR-1a-EGFP, EC50 [µg/mL]","intracellular Ca2+ mobilisation in HEK293A cells stably expressing GHSR-1a-EGFP, Emax as percentage of the control (3.3% FBS) [%]"
casein-derived hydrolysate (CasHyd),270,149
ghrelin (rat) (peptide),–,132
